B1: Rtt102, subunit of RSC (natural protein)
chain: MDPQTLITKANKVSYYGNPTSKESWRYDWYQPSKVSSNVQQPQQQLGDMENNLEKYPFRYKTWLRNQEDEKNLQRESCEDILDLKEFDRRILKKSLMTSHTKGDTSKATGAPSANQGDEALSVDDIRGAVGNSEAIPGLSAGVNNDNTKESKDVKMN
B2: Arp9, actin-related protein, subunit of RSC (natural protein)
chain: MAPFRQDSILIIYPRSQTTLVQFGLNEETFTVPELEIPTQIYRTTRQDGSYTYHSTNKDNKAELIKPIQNGEIIDISAFTQFLRLIFVSILSDRANKNQDAFEAELSNIPLLLITHHSWSQSDLEIITQYVFESLEINNLIQLPASLAATYSMISLQNCCIIDVGTHHTDIIPIVDYAQLDHLVSSIPMGGQSINDSLKKLLPQWDDDQIESLKKSPIFEVLSDDAKKLSSFDFGNENEDEDEGTLNVAEIITSGRDTREVLEERERGQKVKNVKNSDLEFNTFWDEKGNEIKVGKQRFQGCNNLIKNISNRVGLTLDNIDDINKAKAVWENIIIVGGTTSISGFKEALLGQLLKDHLIIEPEEEKSKREEEAKSVLPAATKKKSKFMTNSTAFVPTIEYVQCPTVIKLAKYPDYFPEWKKSGYSEIIFLGAQIVSKQIFTHPKDTFYITREKYNMKGPAALWDVQF
B3: Sfh1, subunit of RSC (natural protein)
chain: MSHQNQLIPQAYISNFHNRLTNEDDGIPIFTMAQQTRQHKRAKVVNYAEYDNDLFDEFNMNGSNFNNADTHYKDNAVSHENTPALTNGVTMDGSEYNVLENMNGADSIISNNKYDAGSNMVVESLSGLNSNNNASNGPSNKAQAQDIGNAVLPDLQDQHHNPFNILRYPKIRDTFINGKVVSPYRLNTDQETKANANSGEAIMIPITLDIEHMGHTIKDQFLWNYNDDSISPEEFASIYCKDLDMTSATLQTQIANIIKEQLKDLENIAATEIMSDLHVIINLTCNLQDRFFEDNFQWNLNDKSLTPERFATSIVQDLGLTREFIPLISQSLHETILKIKKDWVDGHLIQDHVPNDAAFGYLSGIRLDIDELGSNWCPRVEILTKEEIQKREIEKERNLRRLKRETDRLSRRGRRRLDDLETTMRM
B4: Sth1, ATPase subunit of RSC (enzyme)
chain: MLQEQSELMSTVMNNTPTTVAALAAVAAASETNGKLGSEEQPEITIPKPRSSAQLEQLLYRYRAIQNHPKENKLEIKAIEDTFRNISRDQDIYETKLDTLRKSIDKGFQYDEDLLNKHLVALQLLEKDTDVPDYFLDLPDTKNDNTTAIEVDYSEKKPIKISADFNAKAKSLGLESKFSNATKTALGDPDTEIRISARISNRINELERLPANLGTYSLDDCLEFITKDDLSSRMDTFKIKALVELKSLKLLTKQKSIRQKLINNVASQAHHNIPYLRDSPFTAAAQRSVQIRSKVIVPQTVRLAEELERQQLLEKRKKERNLHLQKINSIIDFIKERQSEQWSRQERCFQFGRLGASLHNQMEKDEQKRIERTAKQRLAALKSNDEEAYLKLLDQTKDTRITQLLRQTNSFLDSLSEAVRAQQNEAKILHGEEVQPITDEEREKTDYYEVAHRIKEKIDKQPSILVGGTLKEYQLRGLEWMVSLYNNHLNGILADEMGLGKTIQSISLITYLYEVKKDIGPFLVIVPLSTITNWTLEFEKWAPSLNTIIYKGTPNQRHSLQHQIRVGNFDVLLTTYEYIIKDKSLLSKHDWAHMIIDEGHRMKNAQSKLSFTISHYYRTRNRLILTGTPLQNNLPELWALLNFVLPKIFNSAKTFEDWFNTPFANTGTQEKLELTEEETLLIIRRLHKVLRPFLLRRLKKEVEKDLPDKVEKVIKCKLSGLQQQLYQQMLKHNALFVGAGTEGATKGGIKGLNNKIMQLRKICNHPFVFDEVEGVVNPSRGNSDLLFRVAGKFELLDRVLPKFKASGHRVLMFFQMTQVMDIMEDFLRMKDLKYMRLDGSTKTEERTEMLNAFNAPDSDYFCFLLSTRAGGLGLNLQTADTVIIFDTDWNPHQDLQAQDRAHRIGQKNEVRILRLITTDSVEEVILERAMQKLDIDGKVIQAGKFDNKSTAEEQEAFLRRLIESETNRDDDDKAELDDDELNDTLARSADEKILFDKIDKERMNQERADAKAQGLRVPPPRLIQLDELPKVFREDIEEHFKKEDSEPLGRIRQKKRVYYDDGLTEEQFLEAVEDDNMSLEDAIKKRREARERRRLRQNGTKENEIETLENTPEASETSLIENNSFTAAVDEETNADKETTASRSKRRSSRKKRTISIVTAEDKENTQEESTSQENGGAKVEEEVKSSSVEIINGSESKKKKPKLTVKIKLNKTTVLENNDGKRAEEKPESKSPAKKTAAKKTKTKSKSLGIFPTVEKLVEEMREQLDEVDSHPRTSIFEKLPSKRDYPDYFKVIEKPMAIDIILKNCKNGTYKTLEEVRQALQTMFENARFYNEEGSWVYVDADKLNEFTDEWFKEHSS
B5: Rsc6, subunit of RSC (natural protein)
chain: MVTQTNPVPVTYPTDAYIPTYLPDDKVSNLADLKKLIEMDSRLDLYLTRRRLDTSINLPTNTKTKDHPPNKEMLRIYVYNTTESSPRSDSGTPADSGKTTWTLRIEGKLLHESANGKHPFSEFLEGVAVDFKRLKPLGMGKKRKRDSSLSLPLNLQQPEYNDQDSTMGDNDNGEDEDSAEAESREEIVDALEWNYDENNVVEFDGIDIKRQGKDNLRCSITIQLRGVDGGKVQYSPNLATLIGMQTGSVNDAVYSIYKYILINNLFVTEQTEAQDGSNDAEDSSNENNNKNGAGDDDGVEGSTPKDKPELGEVKLDSLLQKVLDTNAAHLPLMNVVQTVNKLVSPLPPIILDYTIDLSKDTTYGATTLDVDVSHILHQPQPQPNLQKEEETDAEDTAKLREITKLALQLNSSAQKYQFFHELSLHPRETLTHYLWSSKQNELVLQGDQYFNEDAARTSDIYSNNNNDRSLMGNISLLYSQGRL
B6: Arp7, actin-related protein, subunit of RSC (natural protein)
chain: MTLNRKCVVIHNGSHRTVAGFSNVELPQCIIPSSYIKRTDEGGEAEFIFGTYNMIDAAAEKRNGDEVYTLVDSQGLPYNWDALEMQWRYLYDTQLKVSPEELPLVITMPATNGKPDMAILERYYELAFDKLNVPVFQIVIEPLAIALSMGKSSAFVIDIGASGCNVTPIIDGIVVKNAVVRSKFGGDFLDFQVHERLAPLIKEENDMENMADEQKRSTDVWYEASTWIQQFKSTMLQVSEKDLFELERYYKEQADIYAKQQEQLKQMDQQLQYTALTGSPNNPLVQKKNFLFKPLNKTLTLDLKECYQFAEYLFKPQLISDKFSPEDGLGPLMAKSVKKAGASINSMKANTSTNPNGLGTSHINTNVGDNNSTASSSNISPEQVYSLLLTNVIITGSTSLIEGMEQRIIKELSIRFPQYKLTTFANQVMMDRKIQGWLGALTMANLPSWSLGKWYSKEDYETLKRDRKQSQATNATN
B7: Rsc8, subunit of RSC (natural protein)
chain: MSDTEKDKDVPMVDSHEATEEPPTTSTNTPSFPHLAQEQAKEESATLGAEVAHKKINYEQEAQKLEEKALRFLAKQTHPVIIPSFASWFDISKIHEIEKRSNPDFFNDSSRFKTPKAYKDTRNFIINTYRLSPYEYLTITAVRRNVAMDVASIVKIHAFLEKWGLINYQIDPRTKPSLIGPSFTGHFQVVLDTPQGLKPFLPENVIKQEVEGGDGAEPQVKKEFPVNLTIKKNVYDSAQDFNALQDESRNSRQIHKVYICHTCGNESINVRYHNLRARDTNLCSRCFQEGHFGANFQSSDFIRLENNGNSVKKNWSDQEMLLLLEGIEMYEDQWEKIADHVGGHKRVEDCIEKFLSLPIEDNYIREVVGSTLNGKGGDSRDGSVSGSKLMECVNDAVQTLLQGDDKLGKVSDKSREISEKYIEESQAIIQELVKLTMEKLESKFTKLCDLETQLEMEKLKYVKESEKMLNDRLSLSKQILDLNKSLEELNVSKKLVLISEQVDSGIQLVEKDQEGDDEDGNTATGHGVKRVGKEGEEVGEGDSIAKLQPQVYKPWSL

Legend:
Assay in all cases: cryo-EM structure
[1] = biological target: B4
Rsc8, subunit of RSC = biological target: B7
[2] = biological target: histone H4 (Xenopus laevis) (Xenopus laevis, UniProt P62799 2-103)
cryo-EM structure = biological target: the molecule itself

Binder: B1
binding result [1]: binds

Binder: B2
binding result [1]: binds

Binder: B3
binding result (Rsc8, subunit of RSC): binds

Binder: B4
binding result [2]: binds

Binder: B5
binding result (Rsc8, subunit of RSC): binds

Binder: B6
binding result [1]: binds

Binder: B7
stoichiometry N (cryo-EM structure): 2
